Target: T1, GABARAP (Homo sapiens, UniProt O95166)
T1 construct: made in house; host or cells: E. coli (T7 Express)
Assay: GST pull-down of hEPG5 (wild type and mutants) with GST-GABARAP bait
Type: binding
Details: anti-FLAG western blot, compared to wild-type hEPG5, triplicates
Method: For GST pull-down analysis, N-terminally GST-tagged LC3 and GABARAP proteins were expressed in Escherichia coli (T7 Express) cells. The cells were induced with 1 mM isopropyl β-d-1-thiogalacpyranoside [IPTG] for 4 h at 25 °C. The cell pellets were resuspended in 25 mL buffer E (50 mM Tris pH 8.0, 150 mM NaCl, and 1 mM PMSF). Cells were then sonicated for four cycles consisting of 1 min sonication followed by 2 min cooling on ice, with duty cycle set to 50% and output control at 5. Cell lysate was then centrifuged at 20,950 × g for 40 min at 4 °C. Supernatant was incubated for 1 h at 4 °C with glutathione resin (50% slurry, GenScript) pre-equilibrated with buffer E, while gently inverting. Resin was returned to the column and washed with buffer E. Proteins were eluted with 10 mM reduced glutathione (GoldBio) in buffer F (50 mM Tris pH 8.0, 150 mM NaCl). Free glutathione was removed by dialysis in buffer F and protein concentration was measured by spectrophotometry (NanoDrop, Thermo Scientific). Glycerol was added to a final concentration of 5%, then solutions were aliquoted and stored at −70 °C.
Pulldowns were performed with a 50 µL slurry of glutathione resin (50% slurry, GenScript). […]
All experiments were performed in triplicates. […] Intensity of His-FLAG-hEPG5, GST (control), and GST-LC3/GABARAP subfamily proteins in pull-down assays was quantified using Bio-Rad Image Lab Software v6.0. […]

T1 sequence (O95166 whole entry): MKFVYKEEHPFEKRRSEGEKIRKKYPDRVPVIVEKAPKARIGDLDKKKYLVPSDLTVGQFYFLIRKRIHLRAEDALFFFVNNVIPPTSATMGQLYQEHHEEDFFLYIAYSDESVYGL

B1: hEPG5^Δ1–1198: hEPG5 truncation mutant which excludes the entire N-terminal region (protein)
chain: YHCDRSLLSSLVSWIVAGNITPSFVEGLATPTQVWFAWTVLNMESIFEEDSQLRRVIEGELVINSAFTPDQALKKAQTQLKLPIVPSLQRLLIYRWAHQALVTPSDHPLLPLIWQKFFLLYLHRPGPQYGLPIDGCIGRRFFQSPAHINLLKEMKRRLTEVADFHHAASKALRVPAEGSEGLPESHSGTPGYLTSPELHKELVRLFNVYILWLEDENFQKGDTYIPSLPKHYDIHRLAKVMQNQQDLWMEYLNMERIYHEFQETVGLWTQAKLESHSTPCSLSVQLDFTDPLLAKERVLSNLRKHEAPQPPLALHPTKPPVPVISSAVLLSQKDATQLVCTDLNLLQQQARTAALRESQQVALDGELLDTMPKQYVNREEQTTLHLECRGSSGKKCQGAAVVTVQFEGMHKNEAISQQLHVLRKEVKQLQAEAAKPPSLNIVEAAVHAENLITALVNAYKLQPTPGIQKVGISLFFTIVDYVSDETQRHPPTRQFFTSCIEILGQVFISGIKSECRKVLETILKNSRLCSLLSPFFTPNAAPAEFIQLYEQVVKFLSEDNSDMIFMLLTKFDLKQWLSATKPPLSDRTRLLESIHLALTAWGLEPDEDILMPFNLFCKHWTYLLLYQFPDQYSDILRLLMQSSAEQLLSPECWKATLRALGCCAPSCQQGAASTEGAVLPSSSDALLSDKQVMETIQWLSDFFYKLRLSKMDFKSFGLFSKWSPYMADVKTFLGYLVKRLIDLEMTCLAQDPTASRKTVLKSLHSVIIQLFKPWILVLEDNESSQQRHYPWLESDTVVASSIVQLFTDCIDSLHESFKDKLLPGDAGALWLHLMHYCEACTAPKMPEFILYAFHSTYRKLPWKDLHPDQMLMEAFFKVERGSPKSCFLFLGSVLCEVNWVSVLSDAWNSSPHPETRSMIVCLLFMMILLAKEVQLVDQTDSPLLSLLGQTSSLSWHLVDIVSYQSVLSYFSSHYPPSIILAKESYAELIMKLLKVSAGLSIPTDSQKHLDAVPKCQAFTHQMVQFLSTLEQNGKITLAVLEQEMSKLLDDIIVFNPPDMDSQTRHMALSSLFMEVLMMMNNATIPTAEFLRGSIRTWIGQKMHGLVVLPLLTAACQSLASVRHMAETTEACITAYFKESPLNQNSGWGPILVSLQVPELTMEEFLQECLTLGSYLTLYVYLLQCLNSEQTLRNEMKVLLILSKWLEQVYPSSVEEEAKLFLWWHQVLQLSLIQTEQNDSVLTESVIRILLLVQSRQNLVAEERLSSGILGAIGFGRKSPLSNRFRVVARSMAAFLSVQVPMEDQIRLRPGSELHLTPKAQQALNALESMASSKQYVEYQDQILQATQFIRHPGHCLQDGKSFLALLVNCLYPEVHYLDHIR
modifications: left off: His, end not stated, kept | FLAG, end not stated, kept
notes: hEPG5 truncation mutant which excludes the entire N-terminal region
  binding to GABARAP in GST pull-down, in words: but not hEPG5^Δ1–1198 was pulled down by GABARAP

From paper PMC7935953, “Insights on autophagosome–lysosome tethering from structural and biochemical characterization of human autophagy factor EPG5” (Communications Biology, 2021)
